The values below come from patent US20250136696A1 (HARBOUR BIOMED SHANGHAI, published 2025).

Changes are numbered by the printed parent chain.

One may read the EC50 as the concentration needed to bring the measured effect to its halfway point. Low values mean higher potency in that assay, high ones lower potency in that assay. By Kd is commonly meant the free concentration of one partner at which half of the binding sites on the other are occupied at equilibrium, for simple one-to-one binding. As a reminder, the koff is the first-order rate constant of dissociation. The kon is the second-order rate constant of association. As usually defined, the IC50 is the point on the concentration scale where inhibition reaches its midpoint.

Experiment [1] deals with T1, human B7-H7 on the cell surface (human, UniProt Q9UM44 23-414).
T1 construct: whole, on cells; also called hB7-H7; hu B7-H7
T1 sequence (looked up): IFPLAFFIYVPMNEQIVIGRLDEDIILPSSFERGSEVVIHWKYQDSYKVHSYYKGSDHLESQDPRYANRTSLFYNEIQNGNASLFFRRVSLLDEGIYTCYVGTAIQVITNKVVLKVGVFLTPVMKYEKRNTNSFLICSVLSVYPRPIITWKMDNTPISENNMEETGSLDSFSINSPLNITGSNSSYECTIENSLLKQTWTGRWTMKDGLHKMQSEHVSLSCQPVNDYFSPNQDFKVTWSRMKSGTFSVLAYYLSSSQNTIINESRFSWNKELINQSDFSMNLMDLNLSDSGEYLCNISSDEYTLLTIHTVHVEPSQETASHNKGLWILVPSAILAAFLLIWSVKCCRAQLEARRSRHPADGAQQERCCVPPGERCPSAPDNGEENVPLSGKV
Kind of experiment: flow cytometry, HCC827 cells. Summed up:
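Cells at 1×10⁶ cells/mL were incubated with antibody in a 3-fold dilution series for 2 hours at 4° C in the dark, then washed in cold PBS with 2% BSA. Surface binding was read as fluorescence signal by flow cytometry.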
On the technique in general: A flow cytometer gives signals particle by particle.

Experiment [2] deals with T2, human B7-H7 recombinant protein (human, UniProt Q9UM44 23-344).
T2 construct: also called human B7-H7 protein
T2 sequence (looked up): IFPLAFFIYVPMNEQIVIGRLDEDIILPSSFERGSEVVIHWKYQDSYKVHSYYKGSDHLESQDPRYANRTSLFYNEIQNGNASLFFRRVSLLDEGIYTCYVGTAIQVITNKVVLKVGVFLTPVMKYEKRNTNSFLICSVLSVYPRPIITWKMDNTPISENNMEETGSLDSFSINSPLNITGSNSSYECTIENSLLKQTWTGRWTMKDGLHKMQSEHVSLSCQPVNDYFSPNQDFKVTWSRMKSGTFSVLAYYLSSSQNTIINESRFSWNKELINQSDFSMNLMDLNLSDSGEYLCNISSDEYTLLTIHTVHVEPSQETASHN
Briefly: BLI (Octet), antibody captured on AHC sensor, human B7-H7 in solution, 1:1 global fit. The essentials: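 Anti-B7-H7 antibodies captured on anti-human Fc sensors to 0.7 nm, then exposed to human B7-H7 at 50-3.125 nM (2-fold series) for 180 s association, 300 s dissociation. Reference-subtracted against 0 nM; kon, kdis and KD from 1:1 global fit.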
For orientation: BLI is a label-free optical method that tracks binding on a fibre tip over time.

In experiment [3] the target is T3, biotinylated human B7-H7 protein (Acro Biosystems, B77-H82F5) (human, UniProt Q9UM44 23-344, biotinylated).
T3 construct: Bought soluble protein; also called biotin-B7H7 protein
T3 sequence (looked up): T2 sequence (looked up)
Kind of experiment: BLI epitope competition on SA-captured biotinylated B7-H7; competitor (first antibody) PR003249.

For experiment [4], the target named is T3, biotinylated human B7-H7 protein (Acro …). Kind of experiment: flow cytometry, blocking of biotinylated human B7-H7 binding to CHO-K1/KIR3DL3 cells.

B1: PR003264 (antibody, human IgG1, kappa)
heavy: not shown
light: DIQLTQSPSFLSASVGDRVTITCRASQGISSYFAWYQQKPGKAPKLLIYAASTLQSGVPSRFSGSGSGTEFTLTISSLQPEDFATYYCQHLNRYPWTFGQGTKVEIKRTVAAPSVFIFPPSDEQLKSGTASVVCLLNNFYPREAKVQWKVDNALQSGNSQESVTEQDSKDSTYSLSSTLTLSKADYEKHKVYACEVTHQGLSSPVTKSFNRGEC
notes: Human IgG1; also called 77G10D3
With B1, in experiment [1], it took 0.618 nM to reach a half-maximal effect (EC50) and the “Maximum MFI” value turned out to be 57000 MFI. Further, in experiment [2], the Kd is 2.94 nM, the koff stood at 0.000115 s⁻¹ and the on-rate (kon) was determined as 39000 M⁻¹ s⁻¹. For the same molecule, in experiment [3], the “Competitive inhibition rate (%)” value stood at 109%. In experiment [4], the concentration for half-maximal inhibition (IC50) was determined as 8.56 nM and the “Maximum inhibition rate (%)” value stood at 104%.

B2: PR004263 (antibody, human IgG1, kappa, L234A L235A)
heavy: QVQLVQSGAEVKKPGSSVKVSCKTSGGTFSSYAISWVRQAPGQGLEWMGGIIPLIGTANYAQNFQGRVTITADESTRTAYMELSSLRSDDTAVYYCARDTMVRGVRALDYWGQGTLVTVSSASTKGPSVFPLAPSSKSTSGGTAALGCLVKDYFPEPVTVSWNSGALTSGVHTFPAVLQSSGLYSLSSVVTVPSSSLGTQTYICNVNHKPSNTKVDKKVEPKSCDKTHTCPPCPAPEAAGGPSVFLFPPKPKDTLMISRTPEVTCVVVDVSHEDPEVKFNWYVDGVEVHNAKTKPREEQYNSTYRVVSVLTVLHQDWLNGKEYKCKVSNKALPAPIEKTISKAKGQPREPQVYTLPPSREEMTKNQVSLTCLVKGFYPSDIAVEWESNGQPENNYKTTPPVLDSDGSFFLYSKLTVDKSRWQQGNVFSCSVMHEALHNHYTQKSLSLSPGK
light: B1 light
notes: Variant of PR003264; Human IgG1 with LALA mutation in Fc
For the molecule B2, in experiment [4], the IC50 was found to be 8.77 nM and the “Maximum inhibition rate (%)” value worked out at 99.9%.

B3: PR004260 (antibody, human IgG1, kappa, L234A L235A)
heavy: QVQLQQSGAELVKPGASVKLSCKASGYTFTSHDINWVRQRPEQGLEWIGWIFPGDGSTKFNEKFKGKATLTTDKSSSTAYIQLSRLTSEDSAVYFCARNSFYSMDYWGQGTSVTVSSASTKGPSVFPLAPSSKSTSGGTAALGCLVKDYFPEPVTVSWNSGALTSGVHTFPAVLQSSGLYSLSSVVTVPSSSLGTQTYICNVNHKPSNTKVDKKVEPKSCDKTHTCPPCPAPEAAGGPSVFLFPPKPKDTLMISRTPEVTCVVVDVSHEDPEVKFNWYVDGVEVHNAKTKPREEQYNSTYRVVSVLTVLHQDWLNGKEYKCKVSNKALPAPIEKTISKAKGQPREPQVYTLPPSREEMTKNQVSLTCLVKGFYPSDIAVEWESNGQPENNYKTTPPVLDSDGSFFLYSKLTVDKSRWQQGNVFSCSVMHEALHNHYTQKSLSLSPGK
light: DIVMSQSPSSLAVSAGEKVTMSCKSSQSLLNSRTRKNQLAWYQQKPGQSPKLLIYWASTRESGVPDRFTGSGSGTDFTLTISSVQAEDLAVYYCKQSYNLRTFGGGTKLEIKRTVAAPSVFIFPPSDEQLKSGTASVVCLLNNFYPREAKVQWKVDNALQSGNSQESVTEQDSKDSTYSLSSTLTLSKADYEKHKVYACEVTHQGLSSPVTKSFNRGEC
notes: Variant of PR003181; Human IgG1 with LALA mutation in Fc
In the case of B3, in experiment [4], the half-maximal inhibitory concentration (IC50) was 8.51 nM and the “Maximum inhibition rate (%)” value is 96.2%.

B4: PR003260 (antibody, human IgG1, kappa, V domains shown)
VH: QVQLVESGGGVVQPGRSLRLPCAASGFTFSRYGMHWVRQAPGKGLEWVADIWYDGSKKYYADSVKGRFTISRDNSKNTLYLQMNSLRAEDTAVYFCTRDGGYSYGPFDYWGQGTLVTVSS
VL: EIVMTQSPATLSVSPGERATLSCRASQSVSSNLAWYQQKPGQAPRLLIYYASTRAPGIPARFSGSESGTEFTLTISSLQSEDFAVYYCQQYNIWPYTFGQGTKLEIKR
notes: Human IgG1; also called 70F3B1
B4: in experiment [1], the concentration for a half-maximal effect (EC50) stood at 0.0439 nM and the “Maximum MFI” value amounted to 53300 MFI. For the same molecule, in experiment [2], the Kd was determined as 1.68 nM, the off-rate constant (koff) is 0.000102 s⁻¹ and the on-rate constant (kon) turned out to be 61100 M⁻¹ s⁻¹. Moreover, the “Competitive inhibition rate (%)” value in experiment [3] is -3.18%. Besides, in experiment [4], the concentration for half-maximal inhibition (IC50) turned out to be 6.46 nM and the “Maximum inhibition rate (%)” value turned out to be 106%.

B5: PR003263 (antibody, human IgG1, kappa, V domains shown)
VH: QVQLVESGGGVVQPGRSLRLSCAASGFTFSYYGLNWVRQAPGKGLEWVAVIWFDGTNKYYADSVKGRFTISRDDSKNTLYLQMNSLRAEDTAVYYCARGYGSGSYYNYVMDAWGQGASVTVSS
VL: B4 VL with Y50G, R54G, P56T, E66G, E70D, N92Y, I93K, Y96L, Q100G, L104V
notes: Human IgG1; also called 77E6C4
For the molecule B5, in experiment [1], a half-maximal effect (EC50) was put at 0.0789 nM and the “Maximum MFI” value stood at 53200 MFI. For the same molecule, in experiment [2], the Kd was found to be 5.44 nM, the koff stood at 0.000441 s⁻¹ and the kon turned out to be 81100 M⁻¹ s⁻¹. Besides, the “Competitive inhibition rate (%)” value in experiment [3] was -0.324%. Moreover, in experiment [4], the IC50 is 6.23 nM and the “Maximum inhibition rate (%)” value stood at 103%.

B6: PR003251 (antibody, human IgG1, kappa, V domains shown)
VH: QVQLVESGGGVVQPGRSLRLSCAVSGFTFSRYGMHWVRQAPGKGLDWVAVIWYNGNNKYYTDSVKGRFTISRDNSKNTLFLQMNSLRAEDTAVYYCARDGAYSYGPFDYWGQGTLVTVSS
VL: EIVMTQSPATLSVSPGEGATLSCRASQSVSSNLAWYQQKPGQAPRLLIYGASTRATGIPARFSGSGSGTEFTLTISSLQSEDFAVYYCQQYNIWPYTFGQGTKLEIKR
notes: Human IgG1; also called 29F2C8
For the molecule B6, in experiment [1], the EC50 was 0.0373 nM and the “Maximum MFI” value is 53300 MFI. Further, in experiment [2], the Kd worked out at 6.7 nM, the koff amounted to 0.000632 s⁻¹ and the kon amounted to 94300 M⁻¹ s⁻¹. Besides, in experiment [3], the “Competitive inhibition rate (%)” value was -6.54%. In experiment [4], the 50% inhibitory concentration (IC50) stood at 6.34 nM and the “Maximum inhibition rate (%)” value was 96.4%.

B7: PR003254 (antibody, human IgG1, kappa, V domains shown)
VH: B4 VH with P21S, R31S, D54N, S56N, K57N, V93L, F95Y, T97A
VL: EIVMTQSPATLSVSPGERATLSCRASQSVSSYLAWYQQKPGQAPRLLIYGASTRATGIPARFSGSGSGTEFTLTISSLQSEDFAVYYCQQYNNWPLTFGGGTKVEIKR
notes: Human IgG1; also called 59D6D2
For B7, in experiment [1], the EC50 is 0.192 nM and the “Maximum MFI” value turned out to be 45900 MFI. In experiment [2], the Kd amounted to 32.3 nM, the off-rate (koff) is 0.00245 s⁻¹ and the kon came to 75600 M⁻¹ s⁻¹. Moreover, the “Competitive inhibition rate (%)” value in experiment [3] is -5.96%. Besides, in experiment [4], the IC50 came out at 7.18 nM and the “Maximum inhibition rate (%)” value was 97.2%.

B8: PR003262 (antibody, human IgG1, kappa, V domains shown)
VH: B6 VH with V24A, M34I, D46E, N56R, T61V, F80Y, A101G
VL: B4 VL with V29F, S31N, Y50G, P56T, E66G, Q89H, Y96L, Q100G, L104V
notes: Human IgG1; also called 77D5A4
For the molecule B8, in experiment [1], the EC50 amounted to 0.041 nM and the “Maximum MFI” value was 54000 MFI. In experiment [2], the Kd amounted to 1.55 nM, the dissociation rate constant (koff) is 0.000117 s⁻¹ and the kon amounted to 75500 M⁻¹ s⁻¹. In addition, the “Competitive inhibition rate (%)” value in experiment [3] is -2.6%. In experiment [4], the IC50 was determined as 9.93 nM and the “Maximum inhibition rate (%)” value came to 105%.
